The results in this text go back to article PMC8769549.

Assay [1] deals with SARS-CoV-2 nsp3 ubiquitin-like domain Ubl1 (1 to 111) (SARS-CoV-2). Put plainly: ITC. (ITC needs no label: the signal is the heat of the interaction.)
Assay [2] addresses SARS-CoV-2 nsp3a (1 to 206) (SARS-CoV-2). Put plainly: ITC.

As for “SARS-CoV-2 nucleoprotein N123 (domains N1, N2 and N3) (domain or fragment)”, in assay [1], the Kd (usually the free concentration of one partner at which half of the binding sites on the other are occupied at equilibrium, for simple one-to-one binding) turned out to be 72 nM and the stoichiometry N – broadly, the number of molecules, sites or subunits per partner or assembly – is 0.903. For the same substance, in assay [2], the Kd stood at 131 nM and the stoichiometry N is 0.665.
